Assay results as given in paper PMC4038756 (Theranostics, 2014).
Where “and” joins values, the source holds several entries; their conditions need not be identical. Equal entries are not always repeated.

Experiments:
Type in all cases: in vivo, NOD/SCID mice
[1] = Small animal PET/CT imaging, H2009 tumor bearing mice; conditions: NOD/SCID, mouse, iv, total radioactivity
[2] = test system: H2009 (αvβ6^+) xenografts; assay: as above; conditions: for Tumor uptake: quantitative PET, mean ± s.d.; for Tumor uptake / Tumor/Lung: n = 3; for Tumor/Lung: ratio of PET uptakes
[3] = Small animal PET/CT imaging, H460 tumor bearing mice; conditions: NOD/SCID, mouse, iv, total radioactivity
[4] = test system: H460 (αvβ6^-) xenografts; assay: as above; conditions: H460 tumor bearing mice, quantitative PET, mean ± s.d., n = 3
[5] = H2009 tumor bearing mice, 1 h p.i.
[6] = H2009 tumor bearing mice, 4 h p.i.
[7] = H2009 tumor bearing mice, 24 h p.i.

`N=C(N)NCCC[C@@H]1NC(=O)[C@H](CCCCNC(=O)CCC(C(=O)O)N2CCCN3CCN(CCCN(C(CCC(=O)NCCCC[C@@H]4NC(=O)[C@@H](Cc5ccc(O)cc5)NC(=O)[C@H](CC(=O)O)NC(=O)CNC(=O)[C@H](CCCNC(=N)N)NC4=O)C(=O)O)CC3)CC2)NC(=O)[C@@H](Cc2ccc(O)cc2)NC(=O)[C@H](CC(=O)O)NC(=O)CNC1=O` (some centres unmarked) [^64Cu-CB-TE2A-(c(RGDyK))2, metal not drawn, reference compound] showed a tissue uptake at 1 h ([1]; heart) of 1.67 ± 0.13 %ID/g, a tissue uptake at 4 h ([1]; heart) of 0.58 ± 0.13 %ID/g and a tissue uptake at 24 h ([1]; heart) of 0.4 ± 0.12 %ID/g. The tissue uptake at 1 h ([1]; kidney) was 3.43 ± 0.25 %ID/g, the tissue uptake at 4 h ([1]; kidney) was 1.35 ± 0.54 %ID/g and the tissue uptake at 24 h ([1]; kidney) was 0.93 ± 0.09 %ID/g. The tissue uptake at 1 h ([1]; liver) was 2.56 ± 0.41 %ID/g, the tissue uptake at 4 h ([1]; liver) was 1.97 ± 0.19 %ID/g and the tissue uptake at 24 h ([1]; liver) was 1.65 ± 0.35 %ID/g. For the same compound, the tissue uptake at 1 h ([1]; lung) was 0.7 ± 0.05 %ID/g, the tissue uptake at 4 h ([1]; lung) was 0.61 ± 0.17 %ID/g and the tissue uptake at 24 h ([1]; lung) was 0.39 ± 0.18 %ID/g. For the same compound, the tissue uptake at 1 h ([1]; muscle) was 0.41 ± 0.04 %ID/g, the tissue uptake at 4 h ([1]; muscle) was 0.26 ± 0.12 %ID/g and the tissue uptake at 24 h ([1]; muscle) was 0.24 ± 0.08 %ID/g. The Tumor uptake [2, 5] was 1.58 ± 0.13 %ID/g, the Tumor uptake [2, 6] was 1.07 ± 0.21 %ID/g and the Tumor uptake [2, 7] was 0.7 %ID/g and 0.70 ± 0.29 %ID/g. The tissue uptake at 1 h ([3]; heart) was 1.9 ± 0.72 %ID/g, the tissue uptake at 4 h ([3]; heart) was 0.54 ± 0.26 %ID/g and the tissue uptake at 24 h ([3]; heart) was 0.42 ± 0.05 %ID/g. The tissue uptake at 1 h ([3]; kidney) was 4.33 ± 1 %ID/g, the tissue uptake at 4 h ([3]; kidney) was 1.8 ± 0.57 %ID/g and the tissue uptake at 24 h ([3]; kidney) was 1.2 ± 0.14 %ID/g. For the same compound, the tissue uptake at 1 h ([3]; liver) was 2.13 ± 0.25 %ID/g, the tissue uptake at 4 h ([3]; liver) was 1.61 ± 0.41 %ID/g and the tissue uptake at 24 h ([3]; liver) was 2.05 ± 0.07 %ID/g. The tissue uptake at 1 h ([3]; lung) was 0.68 ± 0.02 %ID/g, the tissue uptake at 4 h ([3]; lung) was 0.48 ± 0.06 %ID/g and the tissue uptake at 24 h ([3]; lung) was 0.3 ± 0.01 %ID/g. It also gave a tissue uptake at 1 h ([3]; muscle) of 0.39 ± 0.06 %ID/g, a tissue uptake at 4 h ([3]; muscle) of 0.31 ± 0.04 %ID/g and a tissue uptake at 24 h ([3]; muscle) of 0.27 ± 0.03 %ID/g. The Tumor uptake ([4]; 1 h p.i.) was 1.64 ± 0.20 %ID/g, the Tumor uptake ([4]; 4 h p.i.) was 1.09 ± 0.24 %ID/g and the Tumor uptake ([4]; 24 h p.i.) was 0.7 %ID/g and 0.72 ± 0.10 %ID/g.
Compound `CC(C)C[C@H](NC(=O)[C@H](CCC(N)=O)NC(=O)[C@H](CCCNC(=N)N)NC(=O)[C@H](CC(C)C)NC(=O)[C@@H](NC(=O)[C@H](C)NC(=O)[C@H](CC(C)C)NC(=O)[C@H](CC(=O)O)NC(=O)CNC(=O)[C@@H](N)CCCNC(=N)N)[C@@H](C)O)C(=O)NCCOCCOCCOCCOCCOCCOCCOCCOCCOCCOCCOCCOCCC(=O)N[C@@H](CSC1CC(=O)N(CCC(=O)NCCCC[C@H](NC(=O)CCN2C(=O)CC(SC[C@H](NC(=O)CCOCCOCCOCCOCCOCCOCCOCCOCCOCCOCCOCCOCCNC(=O)[C@H](CC(C)C)NC(=O)[C@H](CCC(N)=O)NC(=O)[C@H](CCCNC(=N)N)NC(=O)[C@H](CC(C)C)NC(=O)[C@@H](NC(=O)[C@H](C)NC(=O)[C@H](CC(C)C)NC(=O)[C@H](CC(=O)O)NC(=O)CNC(=O)[C@@H](N)CCCNC(=N)N)[C@@H](C)O)C(N)=O)C2=O)C(=O)NCCC(=O)N[C@@H](CSC2CC(=O)N(CCNC(=O)CCC(C(=O)O)N3CCCN4CCN(CCCN(CC(=O)O)CC4)CC3)C2=O)C(N)=O)C1=O)C(N)=O` (some centres unmarked) [^64Cu-D10, metal not drawn] has a tissue uptake at 1 h ([1]; heart) of 1.26 ± 0.37 %ID/g, a tissue uptake at 4 h ([1]; heart) of 0.79 ± 0.27 %ID/g and a tissue uptake at 24 h ([1]; heart) of 0.42 ± 0.1 %ID/g. It also gave a tissue uptake at 1 h ([1]; kidney) of 43.5 ± 1.8 %ID/g, a tissue uptake at 4 h ([1]; kidney) of 39.3 ± 5.66 %ID/g and a tissue uptake at 24 h ([1]; kidney) of 21.4 ± 0.57 %ID/g. It also gave a tissue uptake at 1 h ([1]; liver) of 2 ± 0.1 %ID/g, a tissue uptake at 4 h ([1]; liver) of 1.56 ± 0.11 %ID/g and a tissue uptake at 24 h ([1]; liver) of 1.01 ± 0.14 %ID/g. It also gave a tissue uptake at 1 h ([1]; lung) of 1.86 ± 0.2 %ID/g, a tissue uptake at 4 h ([1]; lung) of 0.99 ± 0.18 %ID/g and a tissue uptake at 24 h ([1]; lung) of 0.62 ± 0.23 %ID/g. The tissue uptake at 1 h ([1]; muscle) was 0.8 ± 0.11 %ID/g, the tissue uptake at 4 h ([1]; muscle) was 0.4 ± 0.03 %ID/g and the tissue uptake at 24 h ([1]; muscle) was 0.27 ± 0.13 %ID/g. For the same compound, the “increase of kidney uptake as compared to 64Cu-M10” value ([2]; H2009 tumor bearing mice, 1 h, 4 h, 24 h p.i.) was about 6 fold, the Tumor uptake [2, 5] was 1.53 ± 0.15 %ID/g and the Tumor/Lung [2, 5] was 0.8 ± 0.25. The Tumor uptake [2, 6] was 1.2 ± 0.26 %ID/g, the Tumor/Lung [2, 6] was 1.2 ± 0.31 and the Tumor uptake [2, 7] was 0.89 ± 0.26 %ID/g. The Tumor/Lung [2, 7] was 1.4 ± 0.34, the “tumor uptake increase as compared to 64Cu-M10” value ([2]; H2009 tumor, all three time points (1 h, 4 h, 24 h p.i.)) was about 3 fold and the tissue uptake at 1 h ([3]; heart) was 1.41 ± 0.43 %ID/g. The tissue uptake at 4 h ([3]; heart) was 0.77 ± 0.09 %ID/g, the tissue uptake at 24 h ([3]; heart) was 0.47 ± 0.09 %ID/g and the tissue uptake at 1 h ([3]; kidney) was 43.3 ± 5.4 %ID/g. It also gave a tissue uptake at 4 h ([3]; kidney) of 50.1 ± 3.87 %ID/g, a tissue uptake at 24 h ([3]; kidney) of 19.8 ± 2.38 %ID/g and a tissue uptake at 1 h ([3]; liver) of 2.63 ± 0.92 %ID/g. The tissue uptake at 4 h ([3]; liver) was 2.3 ± 0.26 %ID/g, the tissue uptake at 24 h ([3]; liver) was 1.83 ± 0.15 %ID/g and the tissue uptake at 1 h ([3]; lung) was 1.33 ± 0.3 %ID/g. For the same compound, the tissue uptake at 4 h ([3]; lung) was 0.77 ± 0.07 %ID/g, the tissue uptake at 24 h ([3]; lung) was 0.45 ± 0.17 %ID/g and the tissue uptake at 1 h ([3]; muscle) was 0.75 ± 0.24 %ID/g. It also gave a tissue uptake at 4 h ([3]; muscle) of 0.31 ± 0.06 %ID/g, a tissue uptake at 24 h ([3]; muscle) of 0.33 ± 0.08 %ID/g and a Tumor uptake ([4]; 1 h p.i.) of 0.86 ± 0.21 %ID/g. The Tumor uptake ([4]; 4 h p.i.) was 0.52 ± 0.05 %ID/g and the Tumor uptake ([4]; 24 h p.i.) was 0.39 ± 0.04 %ID/g.
